Molecular target: T1, LRP6 G171V (human, UniProt O75197 32-1384, limits assumed)
T1 construct: The parent protein is printed inconsistently (LRP6 in the legend, LRP5 in the text); also called Human HBM G171V mutation; LRP5, G171V
T1 sequence (looked up): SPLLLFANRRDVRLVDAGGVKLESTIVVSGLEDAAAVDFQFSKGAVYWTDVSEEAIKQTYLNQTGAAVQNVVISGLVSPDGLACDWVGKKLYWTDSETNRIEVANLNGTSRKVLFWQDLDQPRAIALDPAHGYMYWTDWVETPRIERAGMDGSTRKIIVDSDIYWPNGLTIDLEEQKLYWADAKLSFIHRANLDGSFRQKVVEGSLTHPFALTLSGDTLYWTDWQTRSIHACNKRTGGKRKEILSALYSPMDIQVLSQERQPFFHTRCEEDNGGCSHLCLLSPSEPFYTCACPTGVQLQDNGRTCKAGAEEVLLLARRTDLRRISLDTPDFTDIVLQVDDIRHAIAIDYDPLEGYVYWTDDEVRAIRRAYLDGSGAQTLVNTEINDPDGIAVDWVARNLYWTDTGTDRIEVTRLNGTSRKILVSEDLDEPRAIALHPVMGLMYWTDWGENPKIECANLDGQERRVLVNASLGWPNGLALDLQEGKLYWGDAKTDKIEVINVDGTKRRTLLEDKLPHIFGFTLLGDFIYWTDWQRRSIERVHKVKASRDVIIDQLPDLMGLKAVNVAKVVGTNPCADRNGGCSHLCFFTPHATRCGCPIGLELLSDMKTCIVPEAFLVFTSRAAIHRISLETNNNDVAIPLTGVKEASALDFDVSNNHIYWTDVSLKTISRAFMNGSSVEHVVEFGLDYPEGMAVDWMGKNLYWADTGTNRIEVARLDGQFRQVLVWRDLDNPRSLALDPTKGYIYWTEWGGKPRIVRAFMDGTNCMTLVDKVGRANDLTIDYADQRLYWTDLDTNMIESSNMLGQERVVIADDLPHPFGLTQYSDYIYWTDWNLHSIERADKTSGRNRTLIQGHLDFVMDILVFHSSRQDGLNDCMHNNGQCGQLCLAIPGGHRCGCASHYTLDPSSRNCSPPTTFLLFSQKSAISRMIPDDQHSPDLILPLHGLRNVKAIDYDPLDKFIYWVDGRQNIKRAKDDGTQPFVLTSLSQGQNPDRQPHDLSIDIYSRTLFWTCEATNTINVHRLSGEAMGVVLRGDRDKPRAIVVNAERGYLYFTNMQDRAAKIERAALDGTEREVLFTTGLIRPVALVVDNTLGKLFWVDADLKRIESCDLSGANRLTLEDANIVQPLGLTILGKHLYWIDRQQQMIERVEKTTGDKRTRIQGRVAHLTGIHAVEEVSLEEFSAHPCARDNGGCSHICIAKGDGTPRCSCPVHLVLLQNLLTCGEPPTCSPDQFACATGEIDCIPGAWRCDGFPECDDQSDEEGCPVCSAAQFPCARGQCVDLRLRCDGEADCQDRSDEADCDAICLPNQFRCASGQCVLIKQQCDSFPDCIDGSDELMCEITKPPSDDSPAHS
Test: immunoprecipitation, anti-Flag M2 affinity gel (FIG. 2H)
Protocol: A […] dish of 293 cells was transfected with 10 ug of LRP5, LRP6, SOST or Wise, using Fugene 6 (Roche). pCS2+LRP5 contains the extracellular portion of the human sequence between EcoRI-Xbal. pCS2+SOST contain the whole reading frame and has been modified at the 3′ end to have a kozak sequence and Flag tag, Wise-Flag, and LRP6-IgG-FC are described in Itasaki et al. (2003). pCS2+ with an Ig-FC insert is the vector control. The supernatants were collected on day 1, day 2, and day 3. The supernatant was concentrated through an appropriate molecular weight Amicon ultra (Millipore) spin column. A protein concentration was taken on the concentrated supernatants, and 50 ug of each sample was used in each IP. Anti-Flag M2 affinity gel (Sigma) was used for the Wise and SOSTIPs.

- binding result: no binding
B1: SOST-Flag (ligand, mouse, UniProt Q99P68 24-211, looked up)
chain: QGWQAFRNDATEVIPGLGEYPEPPPENNQTMNRAENGGRPPHHPYDAKDVSEYSCRELHYTRFLTDGPCRSAKPVTELVCSGQCGPARLLPNAIGRVKWWRPNGPDFRCIPDRYRAQRVQLLCPGGAAPRSRKVRLVASCKCKRLTRFHNQSELKDFGPETARPQKGRKPRPGARGAKANQAELENAY
notes: mature; This entry was not used because neither its species nor its tie to the assay construct is stated; also called pCS2+SOST; not shown: Flag tag at the 3' end of the reading frame

From patent US20160289316A1 (STOWERS INSTITUTE FOR MEDICAL RESEARCH, published 2016)
